Measured values reported in patent US20250051473A1 (IGM BIOSCIENCES, published 2025).
Substitutions are numbered along the chain they refer to.

B1: IgM B-1 (bispecific antibody)
VH: QAYLQQSGAEVVRSGASVKMSCKAAGYTFTSYNMHWVKQTPGQGLEWIGYIYPGNGGTNYNQKFKGKATLTADTSSTTAYMQISSLTSEDSAVYFCARGASMITTGAWFAYWGQGTLVTVSA
VL: NIVLTQSPASLAVSLGQRATISCRASESLDTYGNSFMYWYQQKPGQPPKLLIYLASSLESGVPARFSGSGSRTDFTLTIDPVEADDAATYYCHQNHEDPWTFGGGTKLEIK
chain: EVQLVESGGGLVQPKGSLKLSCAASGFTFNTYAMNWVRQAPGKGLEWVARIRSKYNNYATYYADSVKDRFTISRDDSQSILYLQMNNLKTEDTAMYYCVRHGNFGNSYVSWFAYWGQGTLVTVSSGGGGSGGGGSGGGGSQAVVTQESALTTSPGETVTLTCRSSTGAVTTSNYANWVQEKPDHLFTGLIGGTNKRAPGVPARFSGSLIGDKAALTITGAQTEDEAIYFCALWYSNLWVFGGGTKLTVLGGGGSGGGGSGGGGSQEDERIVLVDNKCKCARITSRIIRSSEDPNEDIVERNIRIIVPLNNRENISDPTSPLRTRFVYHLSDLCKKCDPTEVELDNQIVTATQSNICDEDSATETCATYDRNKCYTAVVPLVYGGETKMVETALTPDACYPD
notes: Constant regions not specified; also called chimeric CD38 × CD3 IgM antibody of Clone B
B2: IgM C-1 (bispecific antibody)
VH: EVQLQQSGTVLARPGASVKMSCKASGYTFTRYWMHWVKQRPGQDLEWIGGFYPGNSDTRYNQKFKDKAKLTAVTSTSTAYMELSSLTNEDSAVYYCTRGDRHDEGFAYWGQGTLVTVSA
VL: DIQMTQSPASLSASVGETVTITCRASGNIHNYLAWYQQKQGKSPQLLVYNAKTLPDGVPSRFSGSGSGTQYSLKINSLQPEDFGTYYCQNIWTNYTFGGGTKLEIK
chain: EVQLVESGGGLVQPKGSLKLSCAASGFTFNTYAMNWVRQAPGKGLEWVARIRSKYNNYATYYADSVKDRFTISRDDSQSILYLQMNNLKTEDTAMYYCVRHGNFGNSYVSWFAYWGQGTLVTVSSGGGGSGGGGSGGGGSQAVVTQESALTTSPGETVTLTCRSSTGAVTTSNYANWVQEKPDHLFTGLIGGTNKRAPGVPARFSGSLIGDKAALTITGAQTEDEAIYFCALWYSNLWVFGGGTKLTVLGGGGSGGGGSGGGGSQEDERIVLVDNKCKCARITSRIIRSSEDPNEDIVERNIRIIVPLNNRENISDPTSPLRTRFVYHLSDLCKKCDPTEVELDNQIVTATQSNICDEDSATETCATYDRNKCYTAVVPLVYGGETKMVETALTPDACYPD
notes: Constant regions not specified; also called chimeric CD38 × CD3 IgM antibody of Clone C
B3: IgM E-1 (bispecific antibody)
VH: QVQLQQSGAELVRPGTSVKMSCKAAGYTFTNHWIEWVKQRPGHGLEWIGDIFPGGGYTDYNEKFKGKATLTADTSSSTAYMQLSSLTSEDSAIYYCARGRDLAMDYWGQGTSVTVSS
VL: DIQMNQSPSSLSASLGDTITITCHASQNINVWLGWYQQKPGNIPKLLIYKASNLHTGVPSRFSGSGSGTGFTLTISSLQPEDIATYYCQQGQSYPYTFGGGTKLEIK
chain: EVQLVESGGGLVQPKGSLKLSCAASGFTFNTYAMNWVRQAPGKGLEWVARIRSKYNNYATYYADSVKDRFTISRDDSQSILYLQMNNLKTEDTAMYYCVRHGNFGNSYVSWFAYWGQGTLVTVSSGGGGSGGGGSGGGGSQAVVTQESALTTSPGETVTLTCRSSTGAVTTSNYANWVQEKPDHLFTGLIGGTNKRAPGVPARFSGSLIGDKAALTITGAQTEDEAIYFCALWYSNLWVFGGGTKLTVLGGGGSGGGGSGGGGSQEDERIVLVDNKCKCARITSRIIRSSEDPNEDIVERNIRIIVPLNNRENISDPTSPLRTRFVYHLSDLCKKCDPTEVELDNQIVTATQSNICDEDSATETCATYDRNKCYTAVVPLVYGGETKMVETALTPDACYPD
notes: Constant regions not specified; also called chimeric CD38 × CD3 IgM antibody of Clone E
B4: IgM F-1 (bispecific antibody)
VH: EVQLQQSGAEFVRPGASVKLSCTASGFNIKDSLMHWVKQRPEQGLEWIGWIDPEDDKTKYAPKFQDEATLTADTSSNTAYLHLSSLTSEDTAIYYCARRFLRGFAYWGQGTLVTVSA
VL: DIVMTQSPSSLSVSAGEKVTMSCKSSQSLLNSGNQKNYLAWYQQKPGQPPKLLIYGASTRESGVPDRFTGSGSGTDFTLTISSVQAEDLAVYYCQNDHSYPYTFGGGTKLEIK
chain: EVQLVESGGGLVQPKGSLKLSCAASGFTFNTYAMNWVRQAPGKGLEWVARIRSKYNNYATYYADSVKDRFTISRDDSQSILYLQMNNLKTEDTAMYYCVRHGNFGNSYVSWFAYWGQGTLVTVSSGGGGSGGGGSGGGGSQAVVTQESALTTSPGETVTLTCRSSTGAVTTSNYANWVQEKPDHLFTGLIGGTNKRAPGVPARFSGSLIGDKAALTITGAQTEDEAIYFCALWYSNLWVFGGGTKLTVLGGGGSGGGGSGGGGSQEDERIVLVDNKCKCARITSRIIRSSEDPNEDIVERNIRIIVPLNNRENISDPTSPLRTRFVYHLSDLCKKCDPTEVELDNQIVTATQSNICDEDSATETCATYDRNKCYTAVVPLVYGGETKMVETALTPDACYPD
notes: Constant regions not specified; also called chimeric CD38 × CD3 IgM antibody of Clone F
B5: IgM H-1 (bispecific antibody)
VH: QVPLHQSGPELIKPGASLKISCKASDSAFNNSWMNWVRQRPGKGLEWIGWIYPGDDDTKYNGKFMGKATLTADKSSGTAYMQLSSLTSEDSAVYFCARGRWGMDYWGQGTSVTVSS
VL: DIVMTQFHNFMSTSVGDRVNINCKASQNVVTAVAWYQQKPGQSPKLLIYWASTRHTGVPDRFTGSGSGTDFTLTISNVQSEDLADYFCQQYSNYPFTFGSGTKLEIK
chain: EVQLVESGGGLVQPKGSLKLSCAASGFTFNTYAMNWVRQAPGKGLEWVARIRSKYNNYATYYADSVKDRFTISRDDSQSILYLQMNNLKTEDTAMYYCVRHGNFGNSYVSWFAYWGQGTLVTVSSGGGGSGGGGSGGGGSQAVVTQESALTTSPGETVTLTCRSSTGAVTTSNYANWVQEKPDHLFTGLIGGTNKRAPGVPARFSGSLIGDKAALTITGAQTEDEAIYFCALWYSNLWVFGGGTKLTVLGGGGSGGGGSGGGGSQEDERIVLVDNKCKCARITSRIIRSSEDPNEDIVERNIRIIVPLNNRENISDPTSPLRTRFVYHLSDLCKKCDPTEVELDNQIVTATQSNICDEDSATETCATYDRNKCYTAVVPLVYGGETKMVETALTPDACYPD
notes: Constant regions not specified; also called chimeric CD38 × CD3 IgM antibody of Clone H
B6: IgM A-1 (bispecific antibody)
VH: QVQLQQSGAELVKPGASVKISCKASGYTFSNYWIEWVKQRPGLGLEWIGDILPGSGTTNYNEKFKGKATFTADTSSNTAYMQLSSLTSEDSAVYYCAGYGNYLWFTYWGQGTLVTVSA
VL: B3 VL with G34S
chain: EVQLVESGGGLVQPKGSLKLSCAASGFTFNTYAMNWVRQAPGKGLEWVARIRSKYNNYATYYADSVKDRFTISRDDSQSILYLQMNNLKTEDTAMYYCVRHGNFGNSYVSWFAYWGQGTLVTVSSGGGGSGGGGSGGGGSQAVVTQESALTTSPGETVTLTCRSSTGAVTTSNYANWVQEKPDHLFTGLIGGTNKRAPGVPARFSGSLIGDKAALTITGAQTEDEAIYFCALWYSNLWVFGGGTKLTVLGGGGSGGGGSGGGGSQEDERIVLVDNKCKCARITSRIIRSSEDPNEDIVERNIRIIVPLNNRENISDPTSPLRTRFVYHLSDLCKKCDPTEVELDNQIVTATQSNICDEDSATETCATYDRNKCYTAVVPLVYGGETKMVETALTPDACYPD
notes: The IgM heavy chain constant region and the light chain constant region used are not specified; also called chimeric CD38 × CD3 IgM antibody of Clone A
B7: IgM OKT10-2 (bispecific antibody)
VH: EVQLLESGGGLVQPGGSLRLSCAASGFDFSRSWMNWVRQAPGKGLEWVSEINPDSSTINYATSLKDRFTISRDNSKNTLYLQMNSLRAEDTAVYYCARYGNWFPYWGQGTLVTVSS
VL: DIQMTQSPSSLSASVGDRVTITCKASQNVDTNVAWYQQKPGKAPKALIYSASYRYSGVPSRFSGSGSGTDFTLTISSLQPEDFATYYCQQYDSYPLTFGQGTKVEIK
chain: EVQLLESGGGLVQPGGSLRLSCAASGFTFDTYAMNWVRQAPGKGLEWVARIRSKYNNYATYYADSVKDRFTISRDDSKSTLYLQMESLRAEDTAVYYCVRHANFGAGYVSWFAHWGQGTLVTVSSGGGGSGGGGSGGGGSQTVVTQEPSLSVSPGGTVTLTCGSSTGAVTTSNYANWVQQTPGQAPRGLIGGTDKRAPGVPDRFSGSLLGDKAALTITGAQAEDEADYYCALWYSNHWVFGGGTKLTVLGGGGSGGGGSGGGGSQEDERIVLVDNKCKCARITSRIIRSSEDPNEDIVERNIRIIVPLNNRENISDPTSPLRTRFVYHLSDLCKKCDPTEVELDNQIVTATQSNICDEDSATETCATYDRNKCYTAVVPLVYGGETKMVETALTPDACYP
notes: Constant regions not specified; also called humanized CD38 × CD3 IgM antibody
B8: IgM OKT10-4 (bispecific antibody)
VH: B7 VH
VL: B7 VL
chain: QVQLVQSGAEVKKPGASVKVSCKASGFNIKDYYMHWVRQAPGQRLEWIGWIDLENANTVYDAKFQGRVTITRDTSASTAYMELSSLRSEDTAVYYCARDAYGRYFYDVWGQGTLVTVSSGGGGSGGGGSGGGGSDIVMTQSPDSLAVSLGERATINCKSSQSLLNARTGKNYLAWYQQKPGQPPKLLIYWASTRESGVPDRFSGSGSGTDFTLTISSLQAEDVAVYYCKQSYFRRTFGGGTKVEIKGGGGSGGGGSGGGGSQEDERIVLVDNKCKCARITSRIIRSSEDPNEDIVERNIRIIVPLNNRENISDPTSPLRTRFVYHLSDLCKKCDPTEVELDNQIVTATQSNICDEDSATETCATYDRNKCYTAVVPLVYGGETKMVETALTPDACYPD
notes: as for B7
B9: IgM B-2 (bispecific antibody)
VH: QVQLVQSGAEVKKPGSSVKVSCKASGYTFTSYNMHWVRQAPGQGLEWMGYIYPGNGGTNYNQKFKGRVTITADESTSTAYMELSSLRSEDTAVYYCARGASMITTGAWFAYWGQGTLVTVSS
VL: DIQMTQSPSSVSASVGDRVTITCRASESLDTYGNSFMYWYQQKPGKAPKLLIYLASSLESGVPSRFSGSGSGTDFTLTISSLQPEDFATYYCHQNHEDPWTFGQGTKVEIK
chain: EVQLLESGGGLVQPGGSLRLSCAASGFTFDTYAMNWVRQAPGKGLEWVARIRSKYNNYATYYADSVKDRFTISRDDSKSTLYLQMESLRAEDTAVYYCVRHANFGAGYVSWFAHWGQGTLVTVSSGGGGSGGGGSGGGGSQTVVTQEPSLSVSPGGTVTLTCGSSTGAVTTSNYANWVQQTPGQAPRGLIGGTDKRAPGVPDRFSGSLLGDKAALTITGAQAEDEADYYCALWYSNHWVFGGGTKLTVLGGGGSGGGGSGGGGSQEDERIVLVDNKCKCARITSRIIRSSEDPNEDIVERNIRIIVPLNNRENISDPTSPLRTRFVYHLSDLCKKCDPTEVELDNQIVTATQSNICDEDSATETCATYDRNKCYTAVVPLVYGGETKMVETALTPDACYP
notes: IgM and light chain constant regions not specified; also called humanized CD38 × CD3 IgM antibody
B10: IgM B-4 (bispecific antibody)
VH: B9 VH
VL: B9 VL
chain: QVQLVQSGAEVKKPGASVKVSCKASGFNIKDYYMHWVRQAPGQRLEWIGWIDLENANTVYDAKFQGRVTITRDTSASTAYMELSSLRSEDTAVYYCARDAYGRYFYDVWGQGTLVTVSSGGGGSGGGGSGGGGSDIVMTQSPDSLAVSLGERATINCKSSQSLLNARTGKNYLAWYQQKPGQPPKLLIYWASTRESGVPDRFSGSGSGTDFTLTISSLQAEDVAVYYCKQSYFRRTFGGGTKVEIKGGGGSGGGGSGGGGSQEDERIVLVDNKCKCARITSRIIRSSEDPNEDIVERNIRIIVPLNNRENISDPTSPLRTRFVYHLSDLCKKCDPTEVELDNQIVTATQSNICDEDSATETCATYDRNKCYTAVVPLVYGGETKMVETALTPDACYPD
notes: as for B7
B11: IgM E-2 (bispecific antibody)
VH: QVQLVQSGAEVKKPGSSVKVSCKASGYTFTNHWIEWVRQAPGQGLEWMGDIFPGGGYTDYNEKFKGRVTITADESTSTAYMELSSLRSEDTAVYYCARGRDLAMDYWGQGTLVTVSS
VL: B3 VL with N5T, L15V, T18R, I19V, N42K, I43A, G70D, I83F, G100Q, L104V
chain: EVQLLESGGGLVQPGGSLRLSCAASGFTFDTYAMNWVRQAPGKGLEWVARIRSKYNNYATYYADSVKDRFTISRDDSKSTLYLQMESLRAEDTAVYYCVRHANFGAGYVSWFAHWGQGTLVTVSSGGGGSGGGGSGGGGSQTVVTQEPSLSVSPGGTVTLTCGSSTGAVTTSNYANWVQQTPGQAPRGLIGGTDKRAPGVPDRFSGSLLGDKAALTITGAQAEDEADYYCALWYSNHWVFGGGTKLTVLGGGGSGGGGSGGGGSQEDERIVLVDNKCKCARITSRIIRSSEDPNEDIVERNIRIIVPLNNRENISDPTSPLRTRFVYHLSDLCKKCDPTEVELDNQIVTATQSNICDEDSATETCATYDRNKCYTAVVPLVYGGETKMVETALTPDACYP
notes: as for B7
B12: IgM E-4 (bispecific antibody)
VH: B11 VH
VL: B3 VL with N5T, L15V, T18R, I19V, N42K, I43A, G70D, I83F, G100Q, L104V
chain: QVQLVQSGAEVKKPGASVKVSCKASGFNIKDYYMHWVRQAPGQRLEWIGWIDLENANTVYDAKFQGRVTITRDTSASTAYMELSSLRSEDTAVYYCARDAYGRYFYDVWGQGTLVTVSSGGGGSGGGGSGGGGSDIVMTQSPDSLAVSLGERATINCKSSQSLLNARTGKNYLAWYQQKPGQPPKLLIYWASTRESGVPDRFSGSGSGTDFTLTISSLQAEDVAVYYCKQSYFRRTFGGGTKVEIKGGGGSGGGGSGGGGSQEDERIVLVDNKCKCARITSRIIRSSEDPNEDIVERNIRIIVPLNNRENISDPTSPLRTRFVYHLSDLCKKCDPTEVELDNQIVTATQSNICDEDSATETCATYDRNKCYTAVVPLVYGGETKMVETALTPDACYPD
notes: as for B7

target: T1, recombinant human CD38 extracellular domain protein (ACROBiosystems, Cat #CD8-H5224) (human, UniProt P28907 43-300); experiment: ELISA, plate coated with recombinant human CD38 extracellular domain, HRP anti-human kappa detection, chemiluminescence (RLU)
T1 construct: Bought protein; also called recombinant human CD38 protein

| Binder | binding result | EC50 (read off the curve) [µg/mL] |
| --- | --- | --- |
| B1 | binds |  |
| B2 | binds |  |
| B3 | binds |  |
| B4 | binds |  |
| B5 | binds |  |
| B6 |  | ~0.2 |

target: T2, human CD157 protein (SinoBiological, 10060-H08H) (human, UniProt Q10588 33-292); experiment: ELISA, antigen coated at 1 µg/mL, serial dilutions of IgM
T2 construct: Bought recombinant protein, coated on the ELISA plate
T2 sequence (looked up): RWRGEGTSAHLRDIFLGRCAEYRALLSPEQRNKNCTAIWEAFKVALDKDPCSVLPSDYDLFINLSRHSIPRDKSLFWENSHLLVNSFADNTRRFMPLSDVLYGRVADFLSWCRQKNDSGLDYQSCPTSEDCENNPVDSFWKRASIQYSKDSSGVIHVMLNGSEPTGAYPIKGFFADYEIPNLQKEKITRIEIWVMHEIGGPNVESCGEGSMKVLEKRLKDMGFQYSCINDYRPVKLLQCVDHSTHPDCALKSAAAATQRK

| Binder | binding result |
| --- | --- |
| B7 | no binding |
| B8 | no binding |
| B9 | no binding |
| B10 | no binding |
| B11 | no binding |
| B12 | no binding |

target: T3, mouse CD38 (ACROBiosystems, CD8-M5223) (mouse, UniProt P56528 45-304); experiment: as above
T3 construct: Bought recombinant protein, coated on the ELISA plate
T3 sequence (looked up): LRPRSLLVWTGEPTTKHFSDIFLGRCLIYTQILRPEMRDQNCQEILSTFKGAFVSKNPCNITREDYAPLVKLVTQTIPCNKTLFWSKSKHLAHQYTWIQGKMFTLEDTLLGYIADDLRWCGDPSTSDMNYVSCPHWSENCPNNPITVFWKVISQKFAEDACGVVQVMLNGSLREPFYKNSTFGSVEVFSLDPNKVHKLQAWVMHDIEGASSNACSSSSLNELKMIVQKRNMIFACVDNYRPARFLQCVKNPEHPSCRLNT

| Binder | binding result |
| --- | --- |
| B7 | no binding |
| B8 | no binding |
| B9 | no binding |
| B10 | no binding |
| B11 | no binding |
| B12 | no binding |

target: T4, recombinant cynomolgus monkey CD38 extracellular domain protein (ACROBiosystems) (cynomolgus monkey, UniProt Q5VAN0 44-301); experiment: ELISA, plate coated with recombinant cynomolgus CD38 extracellular domain, HRP anti-human kappa detection, chemiluminescence (RLU)
T4 construct: Bought extracellular domain protein; also called cyno CD38; recombinant cyno CD38

| Binder | binding result | EC50 (read off the curve) [µg/mL] |
| --- | --- | --- |
| B1 | binds |  |
| B2 | binds |  |
| B3 | binds |  |
| B4 | binds |  |
| B5 | binds |  |
| B6 |  | ~0.2 |

target: T1, recombinant human CD38 extracellular …; experiment: ELISA, plate coated with 1 ug/mL recombinant human CD38, HRP anti-human kappa detection, chemiluminescence (RLU)

| Binder | EC50 (read off the curve) [µg/mL] | binding result |
| --- | --- | --- |
| B7 | ~0.3 |  |
| B8 |  | binds |
| B9 |  | binds |
| B10 |  | binds |
| B11 |  | binds |
| B12 |  | binds |

target: cell surface human CD38 on NCI-H929 myeloma cells (human, UniProt P28907 1-300); experiment: flow cytometry on NCI-H929 cells, AF488 anti-human kappa secondary antibody, median FL-1

| Binder | binding result | EC50 (read off the curve) [nM] |
| --- | --- | --- |
| B1 | binds |  |
| B2 | binds |  |
| B3 | binds |  |
| B4 | binds |  |
| B5 | binds |  |
| B6 |  | ~2 |
